Measurements taken from US20130197191A1 (Amgen, published 2013).

T1: human FGFR1c-Fc (human, UniProt P11362 22-376)
T1 construct: also called huFGFR1c-Fc; huFGFR1c/Fc
T1 sequence: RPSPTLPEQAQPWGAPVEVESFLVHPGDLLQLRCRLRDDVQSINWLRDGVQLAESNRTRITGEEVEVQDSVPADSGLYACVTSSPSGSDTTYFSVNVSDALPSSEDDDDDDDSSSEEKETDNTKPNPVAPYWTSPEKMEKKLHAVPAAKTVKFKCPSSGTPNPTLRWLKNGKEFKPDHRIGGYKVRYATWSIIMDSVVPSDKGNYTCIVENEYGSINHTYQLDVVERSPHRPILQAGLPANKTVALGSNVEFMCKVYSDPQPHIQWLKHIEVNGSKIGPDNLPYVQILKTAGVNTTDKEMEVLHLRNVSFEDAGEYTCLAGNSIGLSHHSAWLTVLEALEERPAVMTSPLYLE

T2: recombinant human β-Klotho (human, UniProt Q86Z14 53-996, limits assumed, biotinylated in the AlphaScreen assays (site not stated))
T2 construct: also called rhβ-klotho; huβKlotho-His
T2 sequence: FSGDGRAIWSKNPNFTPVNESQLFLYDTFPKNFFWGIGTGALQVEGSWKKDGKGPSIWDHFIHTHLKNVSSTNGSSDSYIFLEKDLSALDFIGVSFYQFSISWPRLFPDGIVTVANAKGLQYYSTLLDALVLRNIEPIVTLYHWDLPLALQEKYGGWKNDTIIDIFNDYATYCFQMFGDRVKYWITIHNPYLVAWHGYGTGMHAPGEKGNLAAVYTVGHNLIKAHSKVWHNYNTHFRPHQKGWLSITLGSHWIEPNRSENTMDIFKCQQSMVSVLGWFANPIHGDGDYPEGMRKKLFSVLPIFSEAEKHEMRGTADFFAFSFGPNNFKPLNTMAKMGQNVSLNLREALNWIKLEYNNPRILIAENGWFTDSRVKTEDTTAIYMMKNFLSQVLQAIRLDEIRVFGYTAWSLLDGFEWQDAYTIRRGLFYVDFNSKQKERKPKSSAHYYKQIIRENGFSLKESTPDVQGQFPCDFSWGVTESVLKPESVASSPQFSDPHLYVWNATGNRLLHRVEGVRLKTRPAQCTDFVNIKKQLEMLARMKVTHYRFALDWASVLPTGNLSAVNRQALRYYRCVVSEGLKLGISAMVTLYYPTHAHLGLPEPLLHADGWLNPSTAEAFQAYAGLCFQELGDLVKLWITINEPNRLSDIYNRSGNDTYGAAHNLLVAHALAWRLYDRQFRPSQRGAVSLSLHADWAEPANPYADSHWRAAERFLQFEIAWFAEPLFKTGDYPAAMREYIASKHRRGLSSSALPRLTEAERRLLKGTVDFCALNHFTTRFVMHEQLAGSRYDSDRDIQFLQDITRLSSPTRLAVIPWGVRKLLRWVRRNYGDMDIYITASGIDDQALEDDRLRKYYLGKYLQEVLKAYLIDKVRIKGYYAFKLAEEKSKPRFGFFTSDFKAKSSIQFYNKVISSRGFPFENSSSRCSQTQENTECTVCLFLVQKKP


These binders were tested against T1, human FGFR1c-Fc (assay: phage panning).

Binder	binding result
CGPNQFTCRSTNICLSQTWVCDGVDDCEDGSDETNCGRPGPGATSAPAA (designed binder) [FGFR1c-binding monomer M20]	binds
CLSDQFTCRSTNICLPLQWVCDGDDDCEDNSDEEDCSAPASEPPGSL (designed binder, also called R1cM31) [FGFR1c-binding monomer M31]	binds
FGFR1c-binding monomer M26 (designed binder) CGSSQFTCHNTNICLPRARVCDGVDDCEDNSDEAGCGDSHILPFSTPGPST	binds
CGAGQFTCRDTNICISRAWRCDGVDDCEDNSDEADCSQDPEFHKV (designed binder, also called R1cM08) [FGFR1c-binding monomer M08]	binds
CRLNEFPCGSGSCISLHWVCDSVPDCRDDSDETDCPERT (designed binder) [FGFR1c-binding monomer M33]	binds
CGSSQFTCHNTNICLPRAWVCDGVDDCEDNSDEKNCSAPASEPPGSL (designed binder) [FGFR1c-binding monomer M29]	binds
FGFR1c-binding monomer M12 (designed binder) CGAGQFTCRSTNICLPLQWVCDGVDDCEDNSDEAGCGDSHILPFSTPGPST	binds

Each binder was assayed against T2, recombinant human β-Klotho (assay: phage panning).

Binder	binding result
CSAFEFHCLSGECIHSSWRCDMDWDCKDQPDQLWCALET (designed binder) [β-Klotho-binding monomer M37]	binds
CSRAHFHCLSGECIHHHWRCDGGPDCKDKSDEENCPTKRPEEV (designed binder) [β-Klotho-binding monomer M41]	binds
CVPNQFQCGSGRCLPHPLGCDGVDDCLDGSDEASCAPPT (designed binder) [β-Klotho-binding monomer M26]	binds
CRSSEFPCHGYSTCISLSLLCDGVDDCADNSDEESCRAAGHT (designed binder) [β-Klotho-binding monomer M34]	binds
CSAFEFHCLSGECIHSSWRCDWDLDCKDHPDEVMCALEA (designed binder) [β-Klotho-binding monomer M39]	binds
CVSDEFPCRDNNICVLLHLLCDGVDDCLDSSDETGCAKPT (designed binder) [β-Klotho-binding monomer M27]	binds

Molecular target: T2, recombinant human β-Klotho
Assay: phage panning
Remark: another data set of the same source

Binder	binding result
CIAAKLCEALDGDGVCHKECDLEECDWDGGDCQRIFLTDPT (designed binder) [β-Klotho-binding monomer LNR_M01]	binds
CNPVYDPYCAAFFGDGGCGPHCGLAECVWDGMDCDHKEVRELT (designed binder) [β-Klotho-binding monomer LNR_M19]	binds
CMAYLLCKKYYGDGICRSECDTATCSWDGFDCPVNEIEDLT (designed binder) [β-Klotho-binding monomer LNR_M09]	binds
CMEAKSCQARDGDGDCGQGCNLAECIWDGMDCRPEWIRELT (designed binder) [β-Klotho-binding monomer LNR_M06]	binds
CNPLYDPHCRSYFGDGDCGPGCDLAACLWDGGDCPGVAAAELT (designed binder) [β-Klotho-binding monomer LNR_M13]	binds
CNPKYDAHCASYFGDGECDPACSLAECVWDGDDCDPNFLTDVT (designed binder) [β-Klotho-binding monomer LNR_M16]	binds
CMAYNLCTALVGDGECDQECDTPTCNWDGGDCAVKSAPDST (designed binder) [β-Klotho-binding monomer LNR_M05]	binds
CNPIIQHYCETYDGDGLCESACNFYGCAWDGFDCQVISDKDST (designed binder) [β-Klotho-binding monomer LNR_M03]	binds
CNPLYDDHCAAFFGDGGCGPECSLAECLWDGGDCEEERDADVT (designed binder) [β-Klotho-binding monomer LNR_M15]	binds
CPPHIEDHCERRDGDGVCQKPCDFYGCLWDGVNCDMDLVQELT (designed binder) [β-Klotho-binding monomer LNR_M02]	binds
CPPHIEDHCERRDGDGVCQKPCDFYGCLWDGVDCDMDLVEELT (designed binder) [β-Klotho-binding monomer LNR_M10]	binds
CMAYNLCQALVGDGSCNSECDTETCGWDGMDCATVEGAEAT (designed binder) [β-Klotho-binding monomer LNR_M11]	binds
CHPLIREYCTHYDGDGECDKGCDSAKCKWDGDDCDMDVLAEVT (designed binder) [β-Klotho-binding monomer LNR_M21]	binds
CLYQDCKEYYGDGNCSKGCNLAECLWDGGDCGTIFLADVT (designed binder) [β-Klotho-binding monomer LNR_M07]	binds
CREYISCPNFYGDGRCQQDCNLAKCVWDGLDCADVWSEDLT (designed binder) [β-Klotho-binding monomer LNR_M04]	binds
CNPPIGQYCTQLFGDGDCGPDCDLAECVWDGDDCDPVAVPDVT (designed binder) [β-Klotho-binding monomer LNR_M18]	binds
CNPPIGQYCTQLFGDGDCGPECNLAECVWDGDDCDPVAVPELT (designed binder) [β-Klotho-binding monomer LNR_M20]	binds
CPAHYGTHCEERDGDGKCHQGCDFATCDWDGMDCGMDLVRELT (designed binder) [β-Klotho-binding monomer LNR_M17]	binds
CREYSMCTRFDGDGICHEQCGYPRCLWDGLDCANNFDHEVT (designed binder) [β-Klotho-binding monomer LNR_M12]	binds
CIAAKLCERLDGDGSCQSECGNATCGWDGMDCDEKENDELT (designed binder) [β-Klotho-binding monomer LNR_M08]	binds
CHPLIREYCEKFFGDGGCDSGCNNSRCDWDGDDCGLIQHGDVT (designed binder) [β-Klotho-binding monomer LNR_M14]	binds

Molecular target: T1, human FGFR1c-Fc
Assay: phage panning
Remark: another data set of the same source

Binder	binding result
CGSNLFTCRSTNICISPAWVCDGVDDCDDDSDETGCSQDPEFHKV (designed binder, also called M23mutM16) [FGFR1c-binding monomer M23mut16]	binds
CGANLFTCRSTNICISPAWVCDGVDDCEDYSDEIGCSQDPEFHKV (designed binder, also called M23mutM11) [FGFR1c-binding monomer M23mut11]	binds
CGPNLFTCRSTNICISRAWVCDGVDDCDDESDEQGCSQDPEFHKV (designed binder) [FGFR1c-binding monomer M23mut13]	binds
CGSNLFTCRRTNICISKAWVCDGVDDCEDNSDETGCSQDPEFHKV (designed binder, also called M23mutM15) [FGFR1c-binding monomer M23mut15]	binds
CGANLFTCRSTNICISPTWVCDGVDDCDDNSDEIGCSQDLEFHKV (designed binder) [FGFR1c-binding monomer M23mut12]	binds
CGANLFTCQSTNICISDAWVCDGVDDCEDNSDETTCSQDPEFHKV (designed binder, also called M23mutM10) [FGFR1c-binding monomer M23mut10]	binds
CGTNMFTCQRTNICISDAWVCDGVDDCEDYSDETACSQDPEFHKV (designed binder) [FGFR1c-binding monomer M23mut18]	binds
CGSDMFTCRSTNICISKVWVCDGVDDCEDDSDERGCSQDPEFHKV (designed binder, also called M23mutM14) [FGFR1c-binding monomer M23mut14]	binds
